Results published in PMC6298560, “Staphylococcus aureus Cas9 is a multiple-turnover enzyme”.

B1: S. aureus sgRNA (structured_RNA)
RNA: GUGAAAGUUAAUCGAACUGUGUUUUAGUACUCUGGAAACAGAAUCUACUAAAACAAGGCAAAAUGCCGUGUUUAUCUCGUCAACUUGUUGGCGAGAU
B2: S. pyogenes sgRNA (structured_RNA)
RNA: GUGAAAGUUAAUCGAACUGUGUUUUAGAGCUAGAAAUAGCAAGUUAAAAUAAGGCUAGUCCGUUAUCAACUUGAAAAAGUGGCACCGAGUCGGUGCUUUU

Columns and labels:
SauCas9 = target: T1, SauCas9 (Staphylococcus aureus, UniProt J7RUA5 1-1053); test: EMSA; 10 mM Mg2+; EMSA: 1x NEBuffer 3.1 (100 mM NaCl, 50 mM Tris-HCl, 10 mM MgCl2, 100 ug/ml BSA, pH 7.9 at 25 C), 50 pM sgRNA, 40 min at 22 C, 6% native TBE gel in cold room; conditions: protein: recombinant; label: 5'-32P; single guide RNA, GAAA tetraloop, two 3' stem-loops
T1 sequence: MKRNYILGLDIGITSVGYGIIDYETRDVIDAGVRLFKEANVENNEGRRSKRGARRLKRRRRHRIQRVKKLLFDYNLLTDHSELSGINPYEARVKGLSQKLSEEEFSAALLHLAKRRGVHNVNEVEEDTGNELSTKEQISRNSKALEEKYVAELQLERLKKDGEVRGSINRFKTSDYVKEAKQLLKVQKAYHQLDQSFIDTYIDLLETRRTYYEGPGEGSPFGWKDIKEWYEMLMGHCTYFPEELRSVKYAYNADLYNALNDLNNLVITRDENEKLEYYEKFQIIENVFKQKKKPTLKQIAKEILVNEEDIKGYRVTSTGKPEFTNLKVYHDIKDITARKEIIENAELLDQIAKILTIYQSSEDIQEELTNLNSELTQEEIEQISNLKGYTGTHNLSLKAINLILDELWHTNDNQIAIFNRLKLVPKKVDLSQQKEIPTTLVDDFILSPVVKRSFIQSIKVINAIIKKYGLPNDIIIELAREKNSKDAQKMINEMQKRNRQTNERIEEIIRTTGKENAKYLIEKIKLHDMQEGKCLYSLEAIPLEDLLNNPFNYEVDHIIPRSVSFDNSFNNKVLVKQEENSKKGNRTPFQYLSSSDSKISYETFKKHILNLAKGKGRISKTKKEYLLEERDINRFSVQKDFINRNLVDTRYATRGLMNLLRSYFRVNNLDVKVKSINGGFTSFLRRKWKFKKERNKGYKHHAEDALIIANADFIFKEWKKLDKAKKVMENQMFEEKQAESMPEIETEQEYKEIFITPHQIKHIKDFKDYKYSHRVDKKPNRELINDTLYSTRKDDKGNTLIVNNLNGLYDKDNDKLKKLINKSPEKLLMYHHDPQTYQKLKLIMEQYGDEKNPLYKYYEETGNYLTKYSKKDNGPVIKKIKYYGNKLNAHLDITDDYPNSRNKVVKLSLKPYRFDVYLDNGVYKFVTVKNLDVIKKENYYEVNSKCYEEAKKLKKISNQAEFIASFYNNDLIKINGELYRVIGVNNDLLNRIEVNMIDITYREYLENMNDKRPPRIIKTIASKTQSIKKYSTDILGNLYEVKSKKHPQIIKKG

SpyCas9 = SpyCas9 (Streptococcus pyogenes, UniProt Q99ZW2 1-1368); test: as above; conditions: protein: recombinant; label: 5'-32P; single guide RNA, GAAA tetraloop, three 3' stem-loops
Chain of SpyCas9 (Q99ZW2 whole entry): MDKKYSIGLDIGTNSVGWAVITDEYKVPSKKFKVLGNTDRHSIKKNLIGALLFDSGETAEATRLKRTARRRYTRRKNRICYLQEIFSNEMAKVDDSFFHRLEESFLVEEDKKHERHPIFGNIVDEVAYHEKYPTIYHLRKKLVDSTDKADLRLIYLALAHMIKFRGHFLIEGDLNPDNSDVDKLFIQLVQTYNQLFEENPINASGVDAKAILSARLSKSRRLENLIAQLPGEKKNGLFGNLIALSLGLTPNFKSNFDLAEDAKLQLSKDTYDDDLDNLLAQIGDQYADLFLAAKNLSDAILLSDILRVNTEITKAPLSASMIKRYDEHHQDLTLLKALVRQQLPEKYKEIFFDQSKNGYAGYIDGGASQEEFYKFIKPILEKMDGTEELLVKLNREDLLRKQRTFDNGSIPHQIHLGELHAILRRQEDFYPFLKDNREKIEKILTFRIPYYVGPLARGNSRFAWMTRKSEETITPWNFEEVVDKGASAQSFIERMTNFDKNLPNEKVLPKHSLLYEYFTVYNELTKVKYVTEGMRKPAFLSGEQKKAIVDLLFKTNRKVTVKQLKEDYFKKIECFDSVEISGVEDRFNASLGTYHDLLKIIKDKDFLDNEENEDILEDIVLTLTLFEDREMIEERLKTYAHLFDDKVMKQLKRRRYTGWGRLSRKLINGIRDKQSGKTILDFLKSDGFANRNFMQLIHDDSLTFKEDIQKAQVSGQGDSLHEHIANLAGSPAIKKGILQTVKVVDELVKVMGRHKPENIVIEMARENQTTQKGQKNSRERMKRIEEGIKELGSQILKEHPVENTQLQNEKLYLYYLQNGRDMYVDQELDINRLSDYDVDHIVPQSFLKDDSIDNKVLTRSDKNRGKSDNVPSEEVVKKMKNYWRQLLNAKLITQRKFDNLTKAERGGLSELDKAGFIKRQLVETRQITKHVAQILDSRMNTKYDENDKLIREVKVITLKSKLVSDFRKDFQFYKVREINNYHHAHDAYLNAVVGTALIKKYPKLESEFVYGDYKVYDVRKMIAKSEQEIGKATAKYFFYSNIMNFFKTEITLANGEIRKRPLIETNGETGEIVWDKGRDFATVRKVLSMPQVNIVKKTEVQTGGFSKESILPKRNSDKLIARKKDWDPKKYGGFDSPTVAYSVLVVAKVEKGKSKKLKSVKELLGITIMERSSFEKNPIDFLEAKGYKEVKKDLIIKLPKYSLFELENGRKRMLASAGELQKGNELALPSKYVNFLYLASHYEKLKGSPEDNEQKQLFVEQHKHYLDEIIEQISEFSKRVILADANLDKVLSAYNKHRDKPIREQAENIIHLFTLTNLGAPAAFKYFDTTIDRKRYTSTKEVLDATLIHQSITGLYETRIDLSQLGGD

Row | Binder | Kd (SauCas9) [nM] | Kd (SpyCas9) [nM]
1 | B1 | 3.4 | –
2 | B2 | – | 0.29 ± 0.08
